Our source for the Kd values is publication PMC5393062.

Common to all, as to experiment: fluorescence polarization
Data set [1] concerns the target pNOB8 ParA(K58E) (Sulfolobus NOB8H2, plasmid pNOB8) (UniProt O93708). The following applies: FP: 25 mM Tris-HCl pH 7.5, 100 mM NaCl, 1 nM 5'-fluorescein DNA, with ATP/AMPPNP, ADP or no nucleotide; temperature not stated. Crystals: 20% PEG 4000, 10% ….
Data set [2] has as its target pNOB8 ParA(R52E-K221E) (Sulfolobus NOB8H2, plasmid pNOB8) (UniProt O93708). The following applies: FP: 25 mM Tris-HCl pH 7.5, 100 mM NaCl, 1 nM 5'-fluorescein DNA, with ATP/AMPPNP, ADP or no nucleotide; temperature not stated. Crystals: 20% PEG 4000, 10% ….
Data set [3] concerns the target pNOB8 ParA(K270E) (Sulfolobus NOB8H2, plasmid pNOB8) (UniProt O93708). The following applies: FP: 25 mM Tris-HCl pH 7.5, 100 mM NaCl, 1 nM 5'-fluorescein DNA, with ATP/AMPPNP, ADP or no nucleotide; temperature not stated. Crystals: 20% PEG 4000, 10% ….
Data set [4] has as its target pNOB8 ParA (Sulfolobus NOB8H2, plasmid pNOB8) (UniProt O93708). The following applies: FP: 25 mM Tris-HCl pH 7.5, 100 mM NaCl, 1 nM 5'-fluorescein DNA, with ATP/AMPPNP, ADP or no nucleotide, temperature not stated. Crystals: 20% PEG 4000, 10% ….
Data set [5] addresses pNOB8 ParA(R52E-K218E) (Sulfolobus NOB8H2, plasmid pNOB8) (UniProt O93708). To be noted: FP: 25 mM Tris-HCl pH 7.5, 100 mM NaCl, 1 nM 5'-fluorescein DNA, with ATP/AMPPNP, ADP or no nucleotide; temperature not stated. Crystals: 20% PEG 4000, 10% ….

On to “TGACGCCGGCGTCA (double strand) [14mer nsDNA, FP probe]”, for which the Kd is 274 nM in data set [1]; 5930 nM in data set [2]; 300 nM in data set [3]; 116 nM in data set [4] (AMPPNP, stoichiometry ~1 ParA dimer to 2 duplexes at 1 uM DNA); 120 nM in data set [4]; 3190 nM in data set [5].
